Measurements reported in patent US9926375B2, “Anti-endoglin antibodies and uses thereof” (Tracon Pharmaceuticals, Inc., priority 2014, dated 2018).

Key:
[1] = tested on: BLM-induced pulmonary fibrosis model mice; assay: Bleomycin-induced pulmonary fibrosis model; format: in vivo, mouse; details: vs isotype-control antibody group (isotype-control vs disease control group); day 21; Bonferroni, P<0.05
Experimental: Pathogen-free 7 weeks old female C57BL/6J mice were obtained from Japan SLC, Inc. (Japan). At day 0, 60 mice were induced to develop pulmonary fibrosis by a single intratracheal administration of bleomycin sulphate (BLM, Nippon Kayaku, Japan) in saline at a dose of 3 mg/kg, in a volume of 50 μL per animal using Microsprayer® (Penn-Century, USA).
BLM-induced pulmonary fibrosis model mice were randomized into 4 groups of 12 mice based on the body weight on the day before the start of treatment.
Group 3 (M1043 Antibody): Twelve BLM-induced pulmonary fibrosis model mice were intravenously administered vehicle supplemented with M1043 at a dose of 10 mg/kg twice weekly at day 7, 10, 14 and 17.
Group 4 (TRC105 human/mouse chimeric antibody): Twelve BLM-induced pulmonary fibrosis model mice were intravenously administered vehicle supplemented with TRC105 at a dose of 10 mg/kg twice weekly at day 7, 10, 14 and 17.
Group 5 (BIBF1120 inhibitor for Idiopathic Pulmonary Fibrosis—positive control, Boehringer Ingelheim): Twelve BLM-induced pulmonary fibrosis model mice were orally administered 1% CMC supplemented with BIBF1120 at a dose of 100 mg/kg once daily from day 7 to 21. […]
Histological analysis of lung sections was conducted by practitioners who are not aware of the Group identity. Masson's Trichrome staining is conducted and an Ashcroft Score estimate was determined. […]

[2] = tested on: CCl4-induced liver fibrosis model mice; assay: Carbon tetrachloride-induced liver fibrosis model; format: in vivo, mouse; details: for Percentage of fibrosis area (Sirius red-positive area), comparison with isotype-matched antibody group: P<0.05, Bonferroni
Experimental: Seven-week-old female C57BL/6J mice (17˜21 g) were obtained from Japan SLC (Japan).
Mice were divided into 3 groups of 8 mice based on their body weight on the day before the start of the treatment (day 13).
Mice were intraperitoneally administered 5% CCl4 (Sigma-Aldrich, USA) in mineral oil (Sigma-Aldrich) in a volume of 100 μL twice a week (day 0, 4, 7, 11, 14, 18, 21 and 25) after acclimation.
To visualize collagen deposition, sections were cut from paraffin blocks of left lateral liver tissue prefixed in Bouin's solution and stained with picro-Sirius red solution (Waldeck, Germany). For quantitative analysis of fibrosis area, bright field images of Sirius red-stained section were randomly captured using a digital camera (DFC280; Leica Microsystems, Germany) at 100-fold magnification, and the Sirius red-stained positive areas in 5 field/section were measured using ImageJ software (National Institute of Health, USA). The quantification was done in a blinded fashion.
Statistical analyses were performed using Bonferroni Multiple comparison test on GraphPad Prism 4 (GraphPad Software, USA). P values<0.05 were considered statistically significant. Results were expressed as mean±SD.
Eight CCl4-induced liver fibrosis model mice were intravenously administered vehicle supplemented with M1043 Antibody at a dose of 10 mg/kg twice weekly at day 14, 17, 21 and 24. All animals were sacrificed on day 28.

[3] = target: T1, mouse endoglin (Mus musculus, UniProt Q63961); assay: Inhibition of mouse BMP binding to mouse endoglin (statement, no method); details: statement in description
T1 sequence (Q63961 27-653): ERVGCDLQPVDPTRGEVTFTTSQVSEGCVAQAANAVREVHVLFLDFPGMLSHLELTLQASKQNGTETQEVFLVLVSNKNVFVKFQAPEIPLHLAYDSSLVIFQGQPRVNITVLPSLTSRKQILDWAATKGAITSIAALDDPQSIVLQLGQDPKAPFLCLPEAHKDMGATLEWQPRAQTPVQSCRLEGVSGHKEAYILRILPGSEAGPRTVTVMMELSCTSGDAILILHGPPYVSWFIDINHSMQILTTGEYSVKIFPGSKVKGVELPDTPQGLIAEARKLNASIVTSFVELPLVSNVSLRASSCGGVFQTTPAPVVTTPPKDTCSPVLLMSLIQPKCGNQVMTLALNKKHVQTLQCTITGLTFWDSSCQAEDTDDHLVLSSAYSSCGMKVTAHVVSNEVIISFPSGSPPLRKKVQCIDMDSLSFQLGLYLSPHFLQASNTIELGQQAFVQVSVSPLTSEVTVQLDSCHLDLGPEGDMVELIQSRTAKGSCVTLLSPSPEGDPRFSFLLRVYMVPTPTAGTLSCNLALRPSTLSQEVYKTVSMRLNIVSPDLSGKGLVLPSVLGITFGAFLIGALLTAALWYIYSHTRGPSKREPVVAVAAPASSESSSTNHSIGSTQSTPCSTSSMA

[4] = 10 mg/kg IV twice weekly, day 28, mean ± SD, n = 8
[5] = isotype-matched antibody vs disease control, M1043 Antibody vs isotype-matched antibody

B1: M1043: rat IgG1 antibody that binds mouse endoglin and competitively inhibits mouse BMP binding; VH SEQ ID NO: 124, VL SEQ ID NO: 125 (antibody, V domains shown)
VH: QVQLQQSGAELVKPGSSVKISCKASGYTFTSYDMHWIKQQPGNGLEWIGWIYPGNGNTKYNQKFNGKATLTADKSSSTAYMQLSSLTSEDSAVYFCARGKFGVGDYWGQGVMVTVSS
VL: DTVLTQSPALAVSPGERVSISCRASEGVNSYMHWYQQKPGQQPKLLIYIASNLASGVPARFSGSGSGTDFTLTIDPVEADDTATYFCQQSWNDPYTFGAGTKLELKR
In the case of B1, the “Ashcroft score, comparison between groups” value [1] is reported as “no significant difference”, the “General condition / abnormal findings” value ([2]; 10 mg/kg IV twice weekly) is reported as “no abnormal findings were observed” and the “Body weight on the day of sacrifice” value [2, 4] is reported as 20.5 ± 0.7 g. The Liver weight [2, 4] was 896 ± 48 mg, the “Sirius red-positive area (fibrosis area)” value [2, 4] was 2.07 ± 0.52% and the “Percentage of fibrosis area (Sirius red-positive area), comparison with isotype-matched antibody group” value ([2]; listed as Antibody M1043) was “significant reduction of collagen deposition”. The “Percentage of fibrosis area (Sirius red-positive area), comparison with isotype-matched antibody group” value ([2]; listed as M1043 Antibody) was “significantly decreased”, the “Collagen deposition and bridging fibrosis in Sirius red-stained liver sections” value ([2]; histology, day 28) was “lower collagen deposition with less frequent formation of bridging fibrosis” and the “Body weight changes, comparison between groups” value [2, 5] was “no significant differences”. The “Body weight on the day of sacrifice, comparison between groups” value [2, 5] was “no significant differences”, the “Mean liver weight, comparison between groups” value ([2]; isotype-matched antibody vs disease-control, M1043 Antibody vs isotype-matched antibody) was “no significant difference in mean body weight” and the “Effect on mouse BMP binding to mouse endoglin” value [3] was “competitively inhibit mouse BMP binding”.
